Laboratory results published in the Human Domainome abundance scans (Beltran et al. 2025).
± gives the uncertainty stated by the source.

B1: Cell division cycle and apoptosis regulator protein 1, residues 625 to 674; numbered along this chain, Q8IX12 (parent)
chain: ISTPTHWSKLDPKTMKVNDLRKELESRALSSKGLKSQLIARLTKQLKVEE
B2: Tripartite motif-containing protein 6, residues 93 to 134; numbered along this chain, Q9C030 (parent)
chain: KAVLCADHGEKLQLFCQEDGKVICWLCERSQEHRGHHTFLVE

Variants of: B1
Assay: abundance fitness (aPCA) (normalised: wild type 0, dead -1); higher = more abundant; growth selection in yeast, the domain comes from the species named
Details: Homo sapiens

Variant	abundance fitness
V17F	-0.071 ± 0.057
V17N	0.249 ± 0.06
K44T	-0.128 ± 0.041
K44N	-0.091 ± 0.067
K44P	-0.652 ± 0.075
L10Q	-0.516 ± 0.033
L10F	-0.535 ± 0.06
K13I	-0.052 ± 0.06
K13R	-0.221 ± 0.032
K13Q	-0.13 ± 0.032
K13M	0.002 ± 0.036
V48F	0.018 ± 0.074
V48M	-0.092 ± 0.069
L34H	-0.026 ± 0.043
L34M	-0.072 ± 0.051
E49N	-0.909 ± 0.12
E49Q	-0.592 ± 0.056
E49A	-0.867 ± 0.053
S36F	-0.186 ± 0.05
S36W	-0.114 ± 0.032
L42Y	-0.845 ± 0.081
L42G	-0.516 ± 0.039
L42R	-0.733 ± 0.038
K16W	-0.354 ± 0.041
K16N	0.033 ± 0.06

Variants of: B2
Assay: as above
Details: Homo sapiens

Variant	abundance fitness
D7C	0.055 ± 0.085
D7R	-0.06 ± 0.051
D7L	0.132 ± 0.058
D7P	-0.297 ± 0.088
D7T	0.165 ± 0.07
D7W	-0.173 ± 0.05
D7M	0.091 ± 0.068
D7S	0.006 ± 0.056
D7A	0.095 ± 0.046
D7N	-0.085 ± 0.17
D7Q	0.172 ± 0.071
D7I	-0.034 ± 0.25
D7F	-0.38 ± 0.29
D7G	-0.291 ± 0.043
D7E	0.048 ± 0.053
D7K	-0.007 ± 0.061
V3S	-0.003 ± 0.061
V3I	-0.135 ± 0.1
V3R	-0.273 ± 0.057
V3E	-0.067 ± 0.09

Variant	abundance fitness
V3Q	-0.306 ± 0.092
V3L	-0.437 ± 0.16
V3A	-0.007 ± 0.054
V3K	0.046 ± 0.058
V3M	0.141 ± 0.069
V3C	0.098 ± 0.13
V3Y	-0.153 ± 0.21
V3W	-0.353 ± 0.083
V3H	-0.349 ± 0.17
V3P	-0.485 ± 0.18
V3G	0.127 ± 0.041
V3T	0.005 ± 0.067
F15A	-0.248 ± 0.046
F15P	-0.209 ± 0.062
F15Q	0.082 ± 0.061
F15D	-0.329 ± 0.33
F15L	-0.222 ± 0.051
F15M	-0.029 ± 0.055
F15K	0.044 ± 0.067
F15N	-0.418 ± 0.1

Variant	abundance fitness
F15C	0.001 ± 0.078
F15E	-0.126 ± 0.046
F15G	-0.087 ± 0.041
L12G	0.117 ± 0.039
L12T	-0.084 ± 0.061
L12S	0.202 ± 0.058
L12I	-0.231 ± 0.16
L12R	0.05 ± 0.041
L12P	0.151 ± 0.059
L12V	-0.06 ± 0.05
L12K	-0.004 ± 0.086
L12C	0.092 ± 0.077
L12F	-0.11 ± 0.13
L12Q	-0.008 ± 0.058
L12A	0.204 ± 0.048
L12E	-0.109 ± 0.053
L12N	0.381 ± 0.14
L12M	0.195 ± 0.075
K1M	-0.156 ± 0.082
